The values that follow come from the supplement of paper PMC9112550, “Optimization of the antimicrobial peptide Bac7 by deep mutational scanning” (BMC Biology, 2022).
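Note: peptides expressed intracellularly from a pBAD plasmid library in pooled LB shake-flask culture, induced with 0.3% L-arabinose, DNA abundance read by NGS, three biological replicates, DESeq2 with apeglm shrinkage.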

In this data set the test system is Escherichia coli TOP10. Kind of data set: shrunken log2 fold change of peptide-encoding DNA abundance (4.5 h post-induction vs induction); higher = less antimicrobial activity (less host growth inhibition). The note with it: time post-induction: 4.5 h; library: site-saturation at positions 5, 18, 19, 20.
Consider RRIRGRPPRLPRPRPRPEIQPRP, for which the “shrunken log2 fold change” value was determined as 0.769.

As for RRIRSRPPRLPRPRPRPYWWPRP, the “shrunken log2 fold change” value was -0.231. For the sequence RRIRQRPPRLPRPRPRPNLDPRP, the “shrunken log2 fold change” value was 0.0163. The figure for RRIRVRPPRLPRPRPRPNIYPRP is -0.25; for RRIRCRPPRLPRPRPRPQENPRP it is -0.0731.

Regarding RRIRMRPPRLPRPRPRPRWAPRP, the “shrunken log2 fold change” value turned out to be 1.3. The figure for RRIRARPPRLPRPRPRPGKPPRP is 0.154. Turning to RRIRPRPPRLPRPRPRPGFQPRP, the “shrunken log2 fold change” value came to 0.215. Under RRIRHRPPRLPRPRPRPPCNPRP stands -0.221; under RRIRFRPPRLPRPRPRPTPHPRP, 0.333.

For the sequence RRIRNRPPRLPRPRPRPGDPPRP, the “shrunken log2 fold change” value came out at 0.306. Turning to RRIRLRPPRLPRPRPRPYCLPRP, the “shrunken log2 fold change” value was -0.303.

On to RRIRLRPPRLPRPRPRPGDPPRP, for which the “shrunken log2 fold change” value was 0.251. The figure for RRIRVRPPRLPRPRPRPHDHPRP is -0.244. The figure for RRIRMRPPRLPRPRPRPPDMPRP is 1.06. Under RRIRRRPPRLPRPRPRPAYCPRP stands 0.0506; under RRIRNRPPRLPRPRPRPFVWPRP, -0.0187. With RRIRCRPPRLPRPRPRPPFLPRP, the “shrunken log2 fold change” value is -0.0759. Under RRIRRRPPRLPRPRPRPCKPPRP stands 0.151; under RRIRVRPPRLPRPRPRPHVLPRP, -0.067; under RRIRCRPPRLPRPRPRPATHPRP, -0.0187.

In the case of RRIRERPPRLPRPRPRPLLAPRP, the “shrunken log2 fold change” value stood at 0.173. Under RRIRDRPPRLPRPRPRPTNWPRP stands 0.111; under RRIRFRPPRLPRPRPRPYHWPRP, -0.208; under RRIRERPPRLPRPRPRPNMEPRP, -0.384. The figure for RRIRHRPPRLPRPRPRPGGNPRP is 0.00148; for RRIRHRPPRLPRPRPRPNLWPRP it is 0.173; for RRIRRRPPRLPRPRPRPLCNPRP it is 0.0189. The figure for RRIRGRPPRLPRPRPRPFYIPRP is 0.0551. In the case of RRIRYRPPRLPRPRPRPDFPPRP, the “shrunken log2 fold change” value was -0.48.

As for RRIRSRPPRLPRPRPRPECQPRP, the “shrunken log2 fold change” value was -0.00188. Under RRIRQRPPRLPRPRPRPGMPPRP stands -0.0642.

For RRIRLRPPRLPRPRPRPFEFPRP, the “shrunken log2 fold change” value was -0.119. The figure for RRIRQRPPRLPRPRPRPASSPRP is -0.196; for RRIRARPPRLPRPRPRPGYDPRP it is -0.0224; for RRIRARPPRLPRPRPRPQHMPRP it is -0.414. Under RRIRSRPPRLPRPRPRPKVEPRP stands 0.213; under RRIRYRPPRLPRPRPRPTLTPRP, -0.0404. As to RRIRFRPPRLPRPRPRPQFIPRP, the “shrunken log2 fold change” value is -0.141. Consider RRIRGRPPRLPRPRPRPSKLPRP, for which the “shrunken log2 fold change” value stood at 0.0492. Under RRIRHRPPRLPRPRPRPFRNPRP stands -0.221; under RRIRNRPPRLPRPRPRPNTIPRP, -0.0529; under RRIRWRPPRLPRPRPRPFMVPRP, -0.371. Under RRIRARPPRLPRPRPRPDQYPRP stands 0.151.

Regarding RRIRLRPPRLPRPRPRPWKPPRP, the “shrunken log2 fold change” value was -0.0142. Under RRIRDRPPRLPRPRPRPGQNPRP stands -0.0354. Under RRIRTRPPRLPRPRPRPEWCPRP stands 0.272; under RRIRCRPPRLPRPRPRPPNNPRP, -0.138; under RRIRPRPPRLPRPRPRPVHCPRP, 0.046. Under RRIRTRPPRLPRPRPRPDYDPRP stands 0.00888. On to RRIRMRPPRLPRPRPRPHHDPRP, for which the “shrunken log2 fold change” value was 0.0126.

As for RRIRWRPPRLPRPRPRPTCRPRP, the “shrunken log2 fold change” value worked out at 0.0452. Under RRIRCRPPRLPRPRPRPTGTPRP stands 0.0453; under RRIRHRPPRLPRPRPRPWTHPRP, -0.00208.

With RRIRLRPPRLPRPRPRPIYDPRP, the “shrunken log2 fold change” value is -1. As to RRIRTRPPRLPRPRPRPDLWPRP, the “shrunken log2 fold change” value came to 0.27. Turning to RRIRFRPPRLPRPRPRPEEHPRP, the “shrunken log2 fold change” value is -0.0677. Take RRIRTRPPRLPRPRPRPITEPRP: the “shrunken log2 fold change” value was -0.183.

For RRIRVRPPRLPRPRPRPQCTPRP, the “shrunken log2 fold change” value is -0.149. Under RRIRRRPPRLPRPRPRPMEIPRP stands -0.0055; under RRIRCRPPRLPRPRPRPMRKPRP, 0.249; under RRIRGRPPRLPRPRPRPQNRPRP, 0.0342. Consider RRIRWRPPRLPRPRPRPNFIPRP, for which the “shrunken log2 fold change” value was -0.174.

In the case of RRIRCRPPRLPRPRPRPTMGPRP, the “shrunken log2 fold change” value is -0.136. The figure for RRIRPRPPRLPRPRPRPVFVPRP is 0.0959; for RRIRSRPPRLPRPRPRPTIEPRP it is -0.0439; for RRIRQRPPRLPRPRPRPFGIPRP it is -0.138. The figure for RRIRLRPPRLPRPRPRPVWGPRP is 0.0435. Under RRIRWRPPRLPRPRPRPGHNPRP stands 0.31; under RRIRIRPPRLPRPRPRPPGGPRP, 0.512; under RRIRRRPPRLPRPRPRPNWKPRP, -0.0144.

For the sequence RRIRLRPPRLPRPRPRPQHAPRP, the “shrunken log2 fold change” value was -0.0395. RRIRVRPPRLPRPRPRPMFLPRP: the “shrunken log2 fold change” value is -0.557. The figure for RRIRFRPPRLPRPRPRPKRVPRP is 0.598; for RRIRHRPPRLPRPRPRPNPLPRP it is -0.0904; for RRIRMRPPRLPRPRPRPVAVPRP it is 0.55.

Take RRIRSRPPRLPRPRPRPKYFPRP: the “shrunken log2 fold change” value was -0.146. Under RRIRGRPPRLPRPRPRPERPPRP stands 1.28. The figure for RRIRDRPPRLPRPRPRPMVQPRP is -0.00146. The figure for RRIRIRPPRLPRPRPRPKGVPRP is -0.00153. On to RRIRKRPPRLPRPRPRPGGCPRP, for which the “shrunken log2 fold change” value worked out at 0.809. The figure for RRIRKRPPRLPRPRPRPDGMPRP is -0.00135.

For the sequence RRIRMRPPRLPRPRPRPYRFPRP, the “shrunken log2 fold change” value was -0.118. As for RRIRPRPPRLPRPRPRPWYPPRP, the “shrunken log2 fold change” value was -0.119. The figure for RRIRQRPPRLPRPRPRPWMPPRP is -0.167; for RRIRIRPPRLPRPRPRPNWLPRP it is -0.0339. The figure for RRIRHRPPRLPRPRPRPPMSPRP is 0.0891; for RRIRSRPPRLPRPRPRPSTSPRP it is -0.455. As for RRIRCRPPRLPRPRPRPDTAPRP, the “shrunken log2 fold change” value is -0.051. Under RRIRGRPPRLPRPRPRPKDWPRP stands 0.914; under RRIRCRPPRLPRPRPRPEYFPRP, -0.0582; under RRIRTRPPRLPRPRPRPHHWPRP, -0.0973. The figure for RRIRKRPPRLPRPRPRPKHAPRP is -0.0322; for RRIRRRPPRLPRPRPRPETQPRP it is 0.164. The figure for RRIRCRPPRLPRPRPRPYKAPRP is -0.279; for RRIRTRPPRLPRPRPRPSYQPRP it is -0.18. Take RRIRGRPPRLPRPRPRPLGWPRP: the “shrunken log2 fold change” value is 1.27. The figure for RRIRPRPPRLPRPRPRPDSNPRP is -0.221; for RRIRHRPPRLPRPRPRPEGIPRP it is 0.0992; for RRIRDRPPRLPRPRPRPQQNPRP it is -0.452. Under RRIRSRPPRLPRPRPRPWWRPRP stands -0.0239; under RRIRDRPPRLPRPRPRPQDTPRP, -0.366. The figure for RRIRYRPPRLPRPRPRPNFKPRP is 0.633; for RRIRCRPPRLPRPRPRPKSWPRP it is 0.323; for RRIRHRPPRLPRPRPRPHYIPRP it is -0.35. On to RRIRCRPPRLPRPRPRPLLHPRP, for which the “shrunken log2 fold change” value was -0.319.

In the case of RRIRGRPPRLPRPRPRPDPCPRP, the “shrunken log2 fold change” value was 0.624. Under RRIRPRPPRLPRPRPRPQSMPRP stands -0.609; under RRIRGRPPRLPRPRPRPRPCPRP, 0.676; under RRIRPRPPRLPRPRPRPMGLPRP, 0.0513.

Turning to RRIRARPPRLPRPRPRPRQNPRP, the “shrunken log2 fold change” value is 0.723. Under RRIRKRPPRLPRPRPRPRTPPRP stands 0.714; under RRIRPRPPRLPRPRPRPMGVPRP, 0.0399.

As for RRIRIRPPRLPRPRPRPGSTPRP, the “shrunken log2 fold change” value is -0.549. The figure for RRIRPRPPRLPRPRPRPLNVPRP is -0.448; for RRIRCRPPRLPRPRPRPQNIPRP it is -0.237.

For RRIRYRPPRLPRPRPRPPGDPRP, the “shrunken log2 fold change” value amounted to 0.152. The figure for RRIRRRPPRLPRPRPRPCHWPRP is 0.092; for RRIRLRPPRLPRPRPRPFRSPRP it is -0.0185. The figure for RRIRKRPPRLPRPRPRPCVRPRP is -0.215. For RRIRERPPRLPRPRPRPPVFPRP, the “shrunken log2 fold change” value was -0.152. The figure for RRIRFRPPRLPRPRPRPDVVPRP is -0.181; for RRIRQRPPRLPRPRPRPFLQPRP it is -0.194. Under RRIRVRPPRLPRPRPRPKEFPRP stands 0.0951.

Turning to RRIRRRPPRLPRPRPRPSPAPRP, the “shrunken log2 fold change” value turned out to be 0.868.
